Our source for the Kd values is publication PMC5662737, “Structural and mechanistic insights into ATRX-dependent and -independent functions of the histone chaperone DAXX” (Nature Communications, 2017).

To fix the notation:
B1: human ATRX DAXX-binding motif (DBM) peptide, wild type [human] / human DAXX four-helix bundle domain (4HB, residues 50–144) [human] (parent complex)
chain 1: NDPENRIAKKMLLEEIKANLSSDE
chain 2: SSSSGGKKCYKLENEKLFEEFLELCKMQTADHPEVVPFLYNRQQRAHSLFLASAEFCNILSRVLSRARSRPAKLYVYINELCTVLKAHSAKKKLN
B2: human DAXX four-helix bundle domain (4HB, residues 50–144) [human] / human ATRX DAXX-binding motif (DBM) peptide, wild type [human] (parent complex)
chain 1: B1 chain 2
chain 2: NDPENRIAKKMLLEEIKANLSSDE

One may read the Kd as the equilibrium constant for the complex coming apart.

Variants of B1 are the subject of the first assay. The assay can be described thus: ITC.
Turning to chain 1 I16A, the Kd came out at 12.9 µM.

Another assay covers variants of B2. The assay can be described thus: ITC.
As to chain 1 F38A, the Kd was 7.5 µM.
